From paper PMC7473711, “Characterization of the different oligomeric states of the DAN family antagonists SOSTDC1 and SOST” (Biochemical Journal, 2020)

Legend:
[1] = target: the molecule itself; assay: SEC; analytical SEC, Superdex S75 HR 10/300, room temperature, 0.5 ml/min, 20 mM HEPES, 1 M NaCl, pH 7.5; 100-150 µg protein loaded; self-association
[2] = target: the molecule itself; assay: SEC; protein that was monomeric at low pH (pH 3.0) neutralised to pH 7.5 and run again on SEC

Protein	stoichiometry N [1]	stoichiometry N [2]
human SOSTDC1 (Sclerostin domain containing protein 1) (natural protein, UniProt Q6X4U4 24-206, looked up, native glycosylation, signal peptide in the construct; SOSTDC1, human, full-length gene made by gene synthesis and codon optimised (GenScript), in pcDNA4 (pCDNA4-hSOSTDC1-PP-Myc-His); secreted into conditioned medium; after cleavage the residues LEVLFQ probably stay on the C-terminus (surmised); The secreted protein probably lacks its signal peptide (surmised); also called hSOSTDC1; Wise; source: Expi293F, transiently …) FKNDATEILYSHVVKPVPAHPSSNSTLNQARNGGRHFSNTGLDRNTRVQVGCRELRSTKYISDGQCTSISPLKELVCAGECLPLPVLPNWIGGGYGTKYWSRRSSQEWRCVNDKTRTQRIQLQCQDGSTRTYKITVVTACKCKRYTRQHNESSHNFESMSPAKPVQHHRERKRASKSSKHSMS	2	
Gremlin2 (natural protein, Gremlin2 (Grem2); also called Grem2) RKNRPAGAIPSPYKDGSSNNSERWHHQIKEVLASSQEALVVTERKYLKSDWCKTQPLRQTVSEEGCRSRTILNRFCYGQCNSFYIPRHVKKEEDSFQSCAFCKPQRVTSVIVELECPGLDPPFRIKKIQKVKHCRCMSVNLSDSDKQ		2
chicken SOSTDC1 (Sclerostin domain containing protein 1), residues 23-206 (natural protein, UniProt Q6VYA3 23-206, looked up, SOSTDC1, chicken, amino acid residues 23-206, cloned into pET21a from pCS2-Flag-cSOSTDC1; 20.7 kDa; The vector is pET21a; also called cSOSTDC1; Wise) AFKNDATEILYSHVVKPAPASPSSNSTLNQARNGGRHYAGTGSDRNNRVQVGCRELRSTKYISDGQCTSINPLKELVCAGECLPLPLLPNWIGGGYGTKYWSRRSSQEWRCVNDKTRTQRIQLQCQDGSIRTYKITVVTACKCKRYTRQHNESSHNFEGTSQAKPVQHHKERKRASKSSKHSTS	2	
